Assays:
NRP2 = biological target: T1, NRP2 (UniProt O60462 23-864, limits assumed); assay: ELISA, VEGF165
T1 construct: Control 'natural receptor'

NRP1 = biological target: T2, NRP1 (UniProt O14786-2 22-644, limits assumed); assay: ELISA, VEGF165
T2 construct: Control 'natural receptor'; also called neuropilin-1; neuropilin 1

T1 sequence (O60462 23-864 limits assumed): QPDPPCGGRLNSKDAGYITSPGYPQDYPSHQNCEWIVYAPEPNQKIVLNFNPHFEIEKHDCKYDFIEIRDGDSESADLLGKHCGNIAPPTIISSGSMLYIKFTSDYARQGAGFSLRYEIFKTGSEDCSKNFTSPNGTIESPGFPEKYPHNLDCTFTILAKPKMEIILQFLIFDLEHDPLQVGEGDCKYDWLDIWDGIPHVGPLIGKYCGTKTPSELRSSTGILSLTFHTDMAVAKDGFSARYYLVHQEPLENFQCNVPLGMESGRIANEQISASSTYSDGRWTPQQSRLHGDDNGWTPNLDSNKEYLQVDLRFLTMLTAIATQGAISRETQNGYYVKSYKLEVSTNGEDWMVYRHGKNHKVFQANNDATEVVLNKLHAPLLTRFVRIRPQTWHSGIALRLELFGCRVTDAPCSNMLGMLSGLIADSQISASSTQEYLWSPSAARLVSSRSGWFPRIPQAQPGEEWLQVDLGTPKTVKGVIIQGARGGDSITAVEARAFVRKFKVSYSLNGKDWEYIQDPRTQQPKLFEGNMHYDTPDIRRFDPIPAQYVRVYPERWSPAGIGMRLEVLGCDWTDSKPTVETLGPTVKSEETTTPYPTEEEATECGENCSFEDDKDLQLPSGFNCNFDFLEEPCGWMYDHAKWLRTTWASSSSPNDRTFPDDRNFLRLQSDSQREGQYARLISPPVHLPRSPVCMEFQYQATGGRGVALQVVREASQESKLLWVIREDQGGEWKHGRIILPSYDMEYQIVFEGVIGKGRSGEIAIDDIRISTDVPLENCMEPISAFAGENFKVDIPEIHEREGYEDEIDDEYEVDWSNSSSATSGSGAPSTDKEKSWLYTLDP

B1: VEGF165 (ligand, UniProt P15692-4 27-191, looked up)
chain: APMAEGGGQNHHEVVKFMDVYQRSYCHPIETLVDIFQEYPDEIEYIFKPSCVPLMRCGGCCNDEGLECVPTEESNITMQIMRIKPHQGQHIGEMSFLQHNKCECRPKKDRARQENPCGPCSERRKHLFVQDPQTCKCSCKNTDSRCKARQLELNERTCRCDKPRR
notes: also called VEGFA
Question: For B1, which Kd (NRP2) is on record?
Answer: 8 nM

Question: What about the Kd (NRP1) of the same binder?
Answer: 0.312 nM

Source: patent US20190375821A1 (IBENTRUS, published 2019)
